In patent EP4289863A9 (Shanghai Huaota Biopharmaceutical Co., Ltd., dated 2024):

Assays:
human IL-36R [1] = target: T1, human IL-36R (human, UniProt Q9HB29 20-575); experiment: cell-based or functional assay
T1 sequence (looked up): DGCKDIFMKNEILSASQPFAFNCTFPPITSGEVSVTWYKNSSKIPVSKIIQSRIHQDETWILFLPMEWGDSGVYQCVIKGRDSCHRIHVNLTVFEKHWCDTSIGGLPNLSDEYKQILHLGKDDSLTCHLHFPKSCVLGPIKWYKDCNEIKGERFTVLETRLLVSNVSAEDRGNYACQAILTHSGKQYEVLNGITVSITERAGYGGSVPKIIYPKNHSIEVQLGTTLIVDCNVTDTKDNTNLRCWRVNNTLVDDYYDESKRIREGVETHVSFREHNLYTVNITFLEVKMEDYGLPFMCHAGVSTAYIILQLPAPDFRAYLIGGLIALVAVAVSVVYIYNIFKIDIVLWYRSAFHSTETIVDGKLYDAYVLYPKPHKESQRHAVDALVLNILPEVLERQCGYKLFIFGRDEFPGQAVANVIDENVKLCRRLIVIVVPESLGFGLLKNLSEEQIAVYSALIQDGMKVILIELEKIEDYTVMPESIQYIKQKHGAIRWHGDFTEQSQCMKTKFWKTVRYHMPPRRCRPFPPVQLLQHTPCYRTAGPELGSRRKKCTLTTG

Human IL-17A = target: T2, Human IL-17A (human, UniProt Q16552 24-155); experiment: ELISA, human IL-17A coated at 1 µg/ml
T2 construct: also called IL-17A recombinant protein; IL-17A soluble recombinant protein
T2 sequence (looked up): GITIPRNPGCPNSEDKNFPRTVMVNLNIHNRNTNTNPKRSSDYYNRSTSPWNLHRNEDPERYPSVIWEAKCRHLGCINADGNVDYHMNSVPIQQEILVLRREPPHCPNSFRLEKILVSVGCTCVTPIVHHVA

human IL-36R [2] = target: T1, human IL-36R; experiment: flow cytometry on CHO-K1-huIL-36R-5E10/2F10 cells
[3] = target: T3, IL36R (analyte of Table 17) (Homo sapiens (Human), UniProt Q9HB29 20-335); experiment: SPR Biacore 8K, antibody captured on anti-human chip, antigen as analyte, 1:1 model
T3 sequence: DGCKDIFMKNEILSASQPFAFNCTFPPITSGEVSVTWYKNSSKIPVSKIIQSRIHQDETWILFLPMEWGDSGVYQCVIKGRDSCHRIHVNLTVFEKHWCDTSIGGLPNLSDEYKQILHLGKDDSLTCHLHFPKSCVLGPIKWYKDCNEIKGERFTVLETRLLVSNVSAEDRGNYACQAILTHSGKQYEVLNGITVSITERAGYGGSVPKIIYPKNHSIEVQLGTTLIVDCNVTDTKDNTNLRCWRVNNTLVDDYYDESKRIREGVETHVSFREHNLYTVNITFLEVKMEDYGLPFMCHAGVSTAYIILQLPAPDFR

[4] = target: T4, IL17A (analyte of Table 17) (Homo sapiens (Human), UniProt Q16552 24-155); experiment: as above
T4 sequence: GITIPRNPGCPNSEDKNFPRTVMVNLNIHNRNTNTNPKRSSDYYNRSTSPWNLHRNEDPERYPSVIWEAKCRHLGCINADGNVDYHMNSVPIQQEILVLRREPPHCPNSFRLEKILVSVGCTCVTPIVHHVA

EC50 of inhibition of IL-6 content, NCI/ADR-RES cells stimulated with IL-36β (human IL-36R [1]): 0.45 nM
EC50 (Human IL-17A): 0.18 nM
EC50 (human IL-36R [2]): 0.747 nM
Kd [3]: 0.35 nM
koff [3]: 7.2e-05 s⁻¹
kon [3]: 205000 M⁻¹ s⁻¹
Kd [4]: 0.0061 nM
koff [4]: 4.13e-05 s⁻¹
kon [4]: 6.77e+06 M⁻¹ s⁻¹
B1: IL17A-IL36R bispecific antibody 700005 (bispecific antibody)
heavy (part 1 of 2): QVQLVQSGSELKKPGASVKVSCKASEYIFTNYGMNWVKQAPGQGFEWMGWIDTNTGEPTYAQGFTGRFVFSLDTSVSTAYLQISSLKAEDTATYYCANYGWGYFDYWGQGTTVTVSS
heavy (part 2 of 2): GGGGSGGGGSGGGGSGGGGSQIVLTQSPGTLSLSPGERATLSCRASSSVSSSYLHWYQQKPGQAPRLWIYSTSSRATGIPDRFSGSGSGTDFTLTISRLEPEDFATYYCQQFQSSPLTFGQGTKLEIKGGGGSGGGGSGGGGSQVQLVQSGAEVKKPGASVKVSCKASGYTFTSSWMHWAKQAPGQGLEWIGEIHPNSAKTNYNQKFQGRVTMTRDTSISTAYMELSRLRSDDTAVYYCARVDYGKPWFAYWGQGTLVTVSS
light: DVVMTQTPPSLPVNPGEPASISCRSSQSLVHSNGYTYLHWYLQKPGQSPQLLIYKVSNHLSGVPDRFSGSGSGTDFTLKISWVEAEDVGVYFCSQSTHVPYTFGGGTKLEIKRTVAAPSVFIFPPSDEQLKSGTASVVCLLNNFYPREAKVQWKVDNALQSGNSQESVTEQDSKDSTYSLSSTLTLSKADYEKHKVYACEVTHQGLSSPVTKSFNRGEC
notes: also called 70005; not shown: heavy constant region CH1-CH2-CH3
